Source: patent US20250025502A1, “COMPOSITIONS AND METHODS FOR CONTROLLING CELL SIGNALING WITH CHIMERIC RECEPTORS” (GentiBio, Inc., priority 2021, published 2025)

Test system: IL10 signaling pathway (STAT3)
Experiment: SEAP colorimetric assay in reporter cells with RISE10 constructs
Assay type: cell-based
Experimental: FIG. 8 provides an example of CISC signaling through the IL10 signaling pathway. Cells were treated with IL10 or rapamycin at varying doses.
The signaling activity of RISE10 constructs (FIGS. 2 and 7) was examined. InvivoGen HEK-BLUE™ IL2 reporter cells, in which production of STAT3 (from IL10 signaling) leads to release of secreted embryonic alkaline phosphatase (SEAP), were used. The reporter cells were transfected with different levels of IL10, rapamycin and the RISE10 construct with a synthetic linker, (G4S)×3 (“CISC10 RaL”), or rapamycin and the RISE10 construct with IL10 hinge domains (“CISC10 RhL”). A colorimetric enzyme assay was performed to quantify the secreted embryonic alkaline phosphatase, and the results are shown in FIG. 8.

B1: IL10: interleukin IL10 used as stimulus for comparison in the reporter assay (protein, UniProt P22301 19-178, looked up)
Interleukin-10: SPGQGTQSENSCTHFPGNLPNMLRDLRDAFSRVKTFFQMKDQLDNLLLKESLLEDFKGYLGCQALSEMIQFYLEEVMPQAENQDPDIKAHVNSLGENLKTLRLRLRRCHRFLPCENKSKAVEQVKNAFNKLQEKGIYKAMSEFDIFINYIEAYMTMKIRN
- IL10 dose giving similar peak plateau (SEAP): 10 ng/mL
